The test system of data set [1] is RapZ-CTD (Strep-tag cleaved) (Escherichia coli). In words: BLI. The settings on record: 1 mM Mg2+; Kd values only in figure; incomplete dissociation; 5' biotin; BLI: 25 mM Tris pH 7.5, 50 mM NaCl, 50 mM KCl, 1 mM MgCl2, 1 mM DTT, temperature not stated; EMSA (GlmY): 10 mM Tris pH 7.0, 100 mM KCl, 10 mM MgCl2, 1 ug …; scale: fold higher affinity than full-length RapZ. Background: Mobility shift assays separate free from complexed probe on a gel.

Data set [2] deals with RapZ full length (Strep-tag cleaved) (Escherichia coli). The data set is described as follows: BLI. As to conditions: 1 mM Mg2+; Kd values only in figure; incomplete dissociation; 5' biotin; BLI: 25 mM Tris pH 7.5, 50 mM NaCl, 50 mM KCl, 1 mM MgCl2, 1 mM DTT, temperature not stated; EMSA (GlmY): 10 mM Tris pH 7.0, 100 mM KCl, 10 mM MgCl2, 1 ug ….
Data set [3] deals with the molecule itself. The data set is described as follows: SEC-MALS + AUC; RapZ-CTD alone. SEC-MALS: 30 μM on Superdex 200 10/300 GL, 25 mM Tris pH 7.5, 200 mM KCl, 1 mM TCEP, 25°C. Sedimentation velocity AUC: 0.5–1 mg/ml, 20°C, 50 000 rpm. On the technique in general: In gel filtration, larger molecules generally elute earlier.
Data set [4] concerns the molecule itself. In words: SEC-MALS; full-length RapZ alone, 30 μM on Superdex 200 10/300 GL, 25°C.

Experimental findings from article PMC5737377, “Structural insights into RapZ-mediated regulation of bacterial amino-sugar metabolism” (Nucleic Acids Research, 2017) are described below.

For the molecule GlmY processed (BLI), the relative binding affinity in data set [1] amounted to 2. In data set [2], the relative binding affinity (relative Kd-type affinity (reference)) was 1.
In data set [1], GlmZ full length (BLI) returned a relative binding affinity of 2. The same molecule registered a relative binding affinity (relative Kd-type affinity (reference)) in data set [2] of 1.
GlmZ processed (BLI): the relative binding affinity in data set [1] amounted to 2. The molecule also showed a relative binding affinity (relative Kd-type affinity (reference)) in data set [2] of 1.

B1: RapZ-CTD (154–284) (domain or fragment, Escherichia coli, UniProt P0A894 154-284, looked up)
chain: GKRERELTMVFESFGFKHGIPIDADYVFDVRFLPNPHWDPKLRPMTGLDKPVAAFLDRHTEVHNFIYQTRSYLELWLPMLETNNRSYLTVAIGCTGGKHRSVYIAEQLADYFRSRGKNVQSRHRTLEKRKP
notes: RapZ, Escherichia coli, C-terminal domain, residues 154-284; also called C-terminal domain of RapZ; source: E. coli Rosetta, purified (Strep Trap, MonoS, gel filtration)
As to B1, the stoichiometry N (in general, the number of molecules, sites or subunits per partner or assembly) in data set [3] stood at 2.

B2: full length Escherichia coli RapZ (natural protein, UniProt P0A894 1-284, looked up)
chain: MVLMIVSGRSGSGKSVALRALEDMGFYCVDNLPVVLLPDLARTLADREISAAVSIDVRNMPESPEIFEQAMSNLPDAFSPQLLFLDADRNTLIRRYSDTRRLHPLSSKNLSLESAIDKESDLLEPLRSRADLIVDTSEMSVHELAEMLRTRLLGKRERELTMVFESFGFKHGIPIDADYVFDVRFLPNPHWDPKLRPMTGLDKPVAAFLDRHTEVHNFIYQTRSYLELWLPMLETNNRSYLTVAIGCTGGKHRSVYIAEQLADYFRSRGKNVQSRHRTLEKRKP
notes: RapZ (formerly YhbJ), Escherichia coli, full length, residues 1-284; also called YhbJ; full-length RapZ (1–284); source: E. coli Rosetta, purified (Strep Trap, heparin, gel filtration)
In the case of B2, the “stoichiometry N” value in data set [4] is 4.
